Literature values, collected in US8450118B2, “Method for detecting binding interactions between membrane proteins and analytes in a homogenous assay” (Molecular Sensing, Inc., priority 2009, dated 2013).

Target: T1, mouse B1 receptor (Mus musculus, UniProt Q61125)
T1 sequence (Q61125 1-334): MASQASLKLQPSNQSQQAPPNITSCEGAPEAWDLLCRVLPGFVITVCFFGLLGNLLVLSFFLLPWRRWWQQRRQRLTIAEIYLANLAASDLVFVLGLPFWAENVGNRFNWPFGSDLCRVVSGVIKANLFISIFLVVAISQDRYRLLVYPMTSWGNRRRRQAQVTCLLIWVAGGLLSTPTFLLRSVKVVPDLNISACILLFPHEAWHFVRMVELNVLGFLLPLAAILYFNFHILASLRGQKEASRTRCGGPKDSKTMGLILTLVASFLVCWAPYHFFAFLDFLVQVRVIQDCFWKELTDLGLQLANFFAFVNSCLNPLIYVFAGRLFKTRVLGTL

BK(1-8): peptide generated by removal of the C-terminal arginine of bradykinin by carboxypeptidases; selective ligand at the B1 receptor (RPPGFSPF; Bradykinin; UniProt P01042 381-388, looked up, fragment)
fold higher affinity for BK(1-8) compared to Lys-BK(1-8): 2-3 fold
